Numbered stars: 1 amine (or outer) side, 2 acyl side, 3 side chain; on linkers, the order of the positions; unused ones are H or OH. Square brackets hold non-standard residues; d marks the D form. Side chains are listed from the residue outwards. Ends that are not written are not given here. * marks the point of attachment. C20 diacid = O=C(O)CCCCCCCCCCCCCCCCCCC(=O)*; C18 diacid = O=C(O)CCCCCCCCCCCCCCCCC(=O)*; αMePhe(2-F) = C[C@](N)(Cc1ccccc1F)C(=O)O; γGlu = O=C(O)[C@H](CCC(=O)[*:2])N[*:1]; Desaminohistidyl = O=C(CCc1c[nH]cn1)*; Desaminotyrosyl = O=C(CCc1ccc(O)cc1)*; αMeP = C[C@@]1(C(=O)O)CCCN1; AEEA = NCCOCCOCC(=O)O; Aib = CC(C)(N)C(=O)O
Experiments:
Experiment in all cases: cell-based or functional assay
[1] = target: Pro-Link-tagged Human GLP-1R (human, UniProt P43220 24-463)
[2] = target: T1, human gastric inhibitory peptide receptor (GIPR) (human, UniProt P48546 22-466)
T1 sequence (looked up): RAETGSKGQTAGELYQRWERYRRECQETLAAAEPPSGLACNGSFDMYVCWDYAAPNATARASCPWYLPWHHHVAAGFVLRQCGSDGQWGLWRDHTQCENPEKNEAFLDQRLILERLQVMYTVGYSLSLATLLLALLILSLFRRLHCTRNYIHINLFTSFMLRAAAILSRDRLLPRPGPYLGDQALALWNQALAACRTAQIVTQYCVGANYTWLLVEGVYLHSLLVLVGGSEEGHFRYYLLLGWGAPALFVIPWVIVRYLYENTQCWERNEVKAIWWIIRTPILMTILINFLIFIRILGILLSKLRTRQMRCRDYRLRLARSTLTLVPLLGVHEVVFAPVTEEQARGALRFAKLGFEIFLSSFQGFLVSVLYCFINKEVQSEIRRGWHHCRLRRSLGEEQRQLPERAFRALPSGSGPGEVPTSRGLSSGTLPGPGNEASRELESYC

[3] = target: human GLP-1 receptor (GLP-1R) (human, UniProt P43220 24-463)
[4] = target: human GLP-1 receptor (human, UniProt P43220 24-463)

B1: Example 338 (peptide)
peptide: FXEGTFTSDYSIXLDKKAQXEFIEYLIAGGPSSGAPPPS
modifications: not fully specified; Aib2, αMeL13, K17 conjugated to (2-[2-(2-Amino-ethoxy)-ethoxy]-acetyl)2-(γ-Glu)-CO-(CH2)18-CO2H, Aib20, C-terminal amide (NH2)
Q: What does the source list for B1?
A: hGLP1R B-Arrestin2 % Top [1]: 47%; hGLP1R B-Arrestin2 Rel EC50 [1]: 18.9 nM

B2: Example 361 (peptide)
peptide: XXEGTFTSDYSIXLDKKAQXAFVXYLIAGGPSSGAPPPS
modifications: D-Tyr1, Aib2, αMeL13, K17 conjugated to (2-[2-(2-Amino-ethoxy)-ethoxy]-acetyl)2-(γ-Glu)-CO-(CH2)18-CO2H, Aib20, D-Glu24, C-terminal amide (NH2)
Q: Which results are given for B2?
A: hGLP1R B-Arrestin2 % Top [1]: 20.2%; hGLP1R B-Arrestin2 Rel EC50 [1]: 269 nM

B3: Example 201 (peptide)
peptide: [Desaminohistidyl][αMeP]EGTFTSDYSILLDEK([AEEA-AEEA-γGlu-C20 diacid])AQQAFIEYLIEGGPSSGAPPPS-NH2
Q: How did the “hGIPR cAMP EC50 ratio” value [2] turn out when B3 was run?
A: The value was less than 0.00602.

Q: What about the “hGIPR cAMP Rel EC50” value [2] of the same binder?
A: Its value is greater than 30 nM.

Q: And the “hGLP1R cAMP EC50 ratio” value [3]?
A: Its value is 1.22.

Q: And the “hGLP1R cAMP Rel EC50” value [3]?
A: The value was 0.0385 nM.

B4: Example 220 (peptide)
peptide: Y[Aib]EGT[αMePhe(2-F)]TSDYSIXLDEK([AEEA-AEEA-γGlu-C18 diacid])AQ[Aib]EFI[dE]YLIEGG-NH2
modifications: not fully specified (residue 13); printed as Y-Aib-EGT-αMeF(2F)-TSDYSI-αMeF-LDEK((2-[2-(2-Amino-ethoxy)-ethoxy]-acetyl)2-(γ-Glu)-CO-(CH2)16-CO2H)AQ-Aib-EFI-(D-Glu)-YLIEGG-NH2
Q: Which results are given for B4?
A: hGIPR cAMP EC50 ratio [2]: 6.3; hGIPR cAMP Rel EC50 [2]: 0.0315 nM; hGLP1R cAMP EC50 ratio [3]: 1.36; hGLP1R cAMP Rel EC50 [3]: 0.0312 nM

B5: Example 199 (peptide)
peptide: [Desaminotyrosyl][Aib]EGTFTSDYSILLDEK([AEEA-AEEA-γGlu-C20 diacid])AQQAFIEYLIEGGPSSGAPPPS-NH2
Q: What does the source list for B5?
A: hGIPR cAMP EC50 ratio [2]: < 0.00602; hGIPR cAMP Rel EC50 [2]: > 30 nM; hGLP1R cAMP EC50 ratio [3]: 1.11; hGLP1R cAMP Rel EC50 [3]: 0.0422 nM

B6: Example 198 (peptide)
peptide: [dY][αMeP]EGTFTSDYSILLDEK([AEEA-AEEA-γGlu-C18 diacid])AQQAFIEYLIEGGPSSG-NH2
modifications: N-terminus assumed
SMILES: CC[C@H](C)[C@H](NC(=O)[C@H](CC(C)C)NC(=O)[C@H](Cc1ccc(O)cc1)NC(=O)[C@H](CCC(=O)O)NC(=O)[C@@H](NC(=O)[C@H](Cc1ccccc1)NC(=O)[C@H](C)NC(=O)[C@H](CCC(N)=O)NC(=O)[C@H](CCC(N)=O)NC(=O)[C@H](C)NC(=O)[C@H](CCCCNC(=O)COCCOCCNC(=O)COCCOCCNC(=O)CC[C@H](NC(=O)CCCCCCCCCCCCCCCCC(=O)O)C(=O)O)NC(=O)[C@H](CCC(=O)O)NC(=O)[C@H](CC(=O)O)NC(=O)[C@H](CC(C)C)NC(=O)[C@H](CC(C)C)NC(=O)[C@@H](NC(=O)[C@H](CO)NC(=O)[C@H](Cc1ccc(O)cc1)NC(=O)[C@H](CC(=O)O)NC(=O)[C@H](CO)NC(=O)[C@@H](NC(=O)[C@H](Cc1ccccc1)NC(=O)[C@@H](NC(=O)CNC(=O)[C@H](CCC(=O)O)NC(=O)[C@]1(C)CCCN1C(=O)[C@H](N)Cc1ccc(O)cc1)[C@@H](C)O)[C@@H](C)O)[C@@H](C)CC)[C@@H](C)CC)C(=O)N[C@@H](CCC(=O)O)C(=O)NCC(=O)NCC(=O)N1CCC[C@H]1C(=O)N[C@@H](CO)C(=O)N[C@@H](CO)C(=O)NCC(N)=O
Q: B6 was tested. Which “hGIPR cAMP EC50 ratio” value [2] did it give?
A: Its value is less than 0.00602.

Q: What about the “hGIPR cAMP Rel EC50” value [2] of the same binder?
A: Its value is greater than 30 nM.

Q: And the “hGLP1R cAMP EC50 ratio” value [3]?
A: The value was 0.337.

Q: What about the “hGLP1R cAMP Rel EC50” value [3] of the same binder?
A: Its value is 0.139 nM.

B7: Example 219 (peptide)
peptide: Y[Aib]EGT[αMePhe(2-F)]TSDYSIXLDEK([AEEA-AEEA-γGlu-C18 diacid])AQ[Aib]EFI[dE]YLIEGGPSSG-NH2
modifications: not fully specified (residue 13); printed as Y-Aib-EGT-αMeF(2F)-TSDYSI-αMeF-LDEK((2-[2-(2-Amino-ethoxy)-ethoxy]-acetyl)2-(γ-Glu)-CO-(CH2)16-CO2H)AQ-Aib-EFI-(D-Glu)-YLIEGGPSSG-NH2
Q: B7 was tested. Which “hGIPR cAMP EC50 ratio” value [2] did it give?
A: The value was 5.86.

Q: And the “hGIPR cAMP Rel EC50” value [2]?
A: The value was 0.0341 nM.

Q: And the “hGLP1R cAMP EC50 ratio” value [3]?
A: The value was 1.03.

Q: What about the “hGLP1R cAMP Rel EC50” value [3] of the same binder?
A: Its value is 0.0403 nM.

B8: Example 200 (peptide)
peptide: [Desaminotyrosyl]AEGTFTSDYSILLDEK([AEEA-AEEA-γGlu-C20 diacid])AQQAFIEYLIEGGPSSGAPPPS-NH2
Q: Which results are given for B8?
A: hGIPR cAMP EC50 ratio [2]: 0.0146; hGIPR cAMP Rel EC50 [2]: 12.3 nM; hGLP1R cAMP EC50 ratio [3]: 0.573; hGLP1R cAMP Rel EC50 [3]: 0.0818 nM

B9: Example 1 (peptide)
peptide: YXEGTXTSDYSIXLDEKAQXEFIXYLIEGGPSSGAPPPS
modifications: Aib2, αMeF(2F)6, αMeL13, K17 conjugated to (2-[2-(2-Amino-ethoxy)-ethoxy]-acetyl)2-(γ-Glu)-CO-(CH2)18-CO2H, Aib20, D-Glu24, C-terminal amide (NH2)
Q: B9 was tested. Which “hGLP1R GTPgS % Top” value [4] did it give?
A: The value was 91.1%.

Q: What about the “hGLP1R GTPgS Rel EC50” value [4] of the same binder?
A: The value was 0.235 nM.

Q: And the “hGLP1R B-Arrestin2 % Top” value [1]?
A: The value was 105%.

Q: What about the “hGLP1R B-Arrestin2 Rel EC50” value [1] of the same binder?
A: The value was 5 nM.

— patent publication US20220048967A1 (published 2022)
